# Measured values: patent publication US20230295310A1 (ABCELLERA BIOLOGICS, published 2023)
# Positions count from the first letter of the chain named.
# B1: mAb 53 (antibody, V domains shown)
# VH: QVQLVQSGAEVKKPGASVKVSCKASGYTFTSYDINWVRQATGQGLEWMGWMNPKSGKTGYAQKFQGRITMTRNTPISTVYMDLSSLRSEDTAVYYCAREGHYDFWTGYYSFDYWGQGTLVTVSS
# VL: DIQMTQSPSSLSASVGDRVTITCRASQGIRNDLGWYQQTPGKAPKRLIYAASSLQSGVPSRFSGSGSGTEFTLTISSLQPEDFATYYCLQHYSYPYTFGQGTKLEIK
# notes: VH and VL only
# B2: mAb 67 (antibody, V domains shown)
# VH: EVQLVESGGDLVQPGRSLRLSCAASGFTFDDCVIHWVRQAPGKGLEWVSGITWNSGRIGYADSVKGRFTISRDNAKNSLYLQMNSLRVEDTALYYCAKEGNYDFWSTYYRGYFDLWGRGTLVTVSS
# VL: B1 VL with T39K, K42I, S56G, S60L, Y92N
# notes: VH and VL only
# B3: mAb 71 (antibody, V domains shown)
# VH: QVQLVQSGAEVRKPGASVKVSCKASGYTFTKYDVNWVRQAPGQGLEWMGWMNSNNGNIGYAQKFQGRVTMTRKTSISTAYMELSSLRSEDTAVYYCAREGHYDFWRGFYNFDYWGQGTLVTVSS
# VL: B1 VL with G28D, R30K, T39K, Y92N, S93F, Y96I, K103R
# notes: VH and VL only
# B4: mAb 55 (antibody, V domains shown)
# VH: QVQLEQSGAEVKKPGASVKVSCKTSGYIFANYDINWVRQATGQGLEWMGWMNPKSGKAGYAQKFQGRVTMTSNTPINTAYMELSSLRSEDTAVYYCAREGHYDFWRGFYSFDYWGQGILVTVSS
# VL: B1 VL with T39K, A50T, Y87F, H91Y, Y92N, S93T
# notes: VH and VL only
# B5: mAb 73 (antibody, V domains shown)
# VH: EVELVESGGGLVQPGRSLRLSCAASGFTFDDKVMHWVRQAPGKGLEWVSCINWNSGHIGYADSVKGRFTISRDNARTSLYLQMNSLRPEDTALYYCVREGNYDFWSGYYRGFFDLWGRGTLVTVSS
# VL: B1 VL with T39K, S56G, Y92T, Y96F
# notes: VH and VL only
# B6: mAb 74 (antibody, V domains shown)
# VH: EVQLVESGGGLVQPGRSLRLSCAASGFTFADYVMHWVRQAPGKGLEWVSGINWNNARIGYVGSVKGRFTISRDNAKNSLYLQMTSLRVEDTALYHCVREGNFDFWSAYYRGFLDLWGRGTLVTVSS
# VL: B1 VL with N31S, T39K, A50G, S56G, Y92N
# notes: VH and VL only
# B7: mAb 320 (antibody, V domains shown)
# VH: QVQLVESGGGVVQPGRSLRLSCAASGFTFRSYGMHWVRQAPGKGLEWVAIIWYDGSKKYYADSVKGRFTISRDNSKNILYLQMNSLRAEDTAVYYCARQEFNWNDGGYYYMDVWGKGTTVTVSS
# VL: DIQLTQSPSFLSASVGDRVTITCRASQGISSYLDWCQQKPGKAPKLLIYAASTLQSGVPSRFSGSGSGTEFTLTISSLQPEDFATYYCQQLDNYPPTFGGGTKVEIK
# notes: VH and VL only
# B8: mAb 46 (antibody, V domains shown)
# VH: EGQLVESGGGLVQPGGSLRLSCVASGFTLSSYTLNWVRQAPGKGLEWVSYISSTSRTIYYSDSVKGRFTISRDNAKNSLYLQMNSLRDEDTALYYCAREDYYDSSGFDYWGQGTLVTVSS
# VL: AIRMTQSPSSFSASTGDRVTITCRASQGISSYLAWYQQKPGKAPKLLIYTASTLQSGVPSRFSGSGSGTDFTLTIRSLQSEDFATYYCQQYYSYPRTFGQGTKVEIK
# notes: VH and VL only
# B9: mAb 51 (antibody, V domains shown)
# VH: B8 VH with G2V, V23A, L34M, T54S, T69S, Y109N
# VL: B8 VL
# notes: VH and VL only
# B10: mAb 130 (antibody, V domains shown)
# VH: EVQLVESGGGLVKTGGSLRLSCVASGFSFKKAWMNWVRQAPGKGLEWVGRIKRNSDGGATDYAAPVKDRFTLSRDDSKNTLYLQMNSLKTEDTAVYYCTTLDSSSWYVGYYYMDVWGKGTTVTVSS
# VL: DIHMTQSPSSVSASLGDRVTFTCRASQDINNWLAWYQQRPGKAPKLLIYTASSLQSGVPSRFSGSGSGTDFTLTISSLQPEDFATYYCQQAHSLPITFGQGTRLGIK
# notes: VH and VL only
# B11: mAb 120 (antibody, V domains shown)
# VH: B10 VH with S55T, A59T, T60A, D68G, N79K, Y82F, W106Y
# VL: B10 VL with H3Q, L15V, F21I, R39K, S76G, G105E
# notes: VH and VL only
# B12: mAb 164 (antibody, V domains shown)
# VH: B10 VH with S55T, A59T, T60A, D68G, N79K, Y82F, W106Y
# VL: B10 VL with H3Q, L15V, F21I, N30K, R39K, S76G, G105E
# notes: VH and VL only
# B13: mAb 122 (antibody, V domains shown)
# VH: B10 VH with S55T, A59T, T60A, D68G, N79K, W106R
# VL: B10 VL with H3Q, L15V, T20I, F21I, R39K, A43V, S76G, G105E
# notes: VH and VL only
# B14: mAb 165 (antibody, V domains shown)
# VH: B10 VH with S55T, A59T, T60A, D68G, N79R, W106R
# VL: B10 VL with H3Q, L15V, T20I, F21I, R39K, A43V, S76G, G105E
# notes: VH and VL only
# B15: mAb 113 (antibody, V domains shown)
# VH: B10 VH with S55T, A59T, D68G
# VL: B10 VL with H3Q, L15V, F21I, R39K, L46I, G105E
# notes: VH and VL only
# B16: mAb 166 (antibody, V domains shown)
# VH: B10 VH with K43R, S55T, A59T, D68G, T80M, W106L
# VL: B10 VL with H3Q, L15V, F21I, R39K, Y87F, G105E, K107T
# notes: VH and VL only
# B17: mAb 169 (antibody, V domains shown)
# VH: B10 VH with S55T, A59T, T60A, D68G, N79K, Y82F, W106Y
# VL: B10 VL with H3Q, L15V, T20I, F21I, R39K, T72I, S76G, G105E
# notes: VH and VL only
# B18: mAb 114 (antibody, V domains shown)
# VH: B10 VH with S55T, A59P, T60A, D68G, N79K
# VL: B10 VL with H3Q, L15V, T20I, F21I, Q37L, T50A, S76G, G105E, K107Q
# notes: VH and VL only
# B19: mAb 163 (antibody, V domains shown)
# VH: B10 VH with A40V, S55T, A59T, T60A, D68G, N79K, Y82F, W106Y
# VL: B10 VL with H3Q, L15V, T20I, F21I, R39K, S76G, G105E
# notes: VH and VL only
# B20: mAb 125 (antibody, V domains shown)
# VH: B10 VH with S55T, A59T, T60A, D68G, N79K, W106R
# VL: B10 VL with H3Q, L15V, T20I, F21I, R39K, A43V, S76G, S77T, G105D
# notes: VH and VL only
# B21: mAb 116 (antibody, V domains shown)
# VH: B10 VH with A59T, D68G
# VL: B10 VL with H3Q, S9F, L15V, F21I, R39K, L46I, G105E
# notes: VH and VL only
# B22: mAb 115 (antibody, V domains shown)
# VH: B10 VH with L18H, A59T, D68G, T71I
# VL: B10 VL with H3Q, L15V, F21I, R39K, L46I, S53N, Y87F, S93G, G105E
# notes: VH and VL only
# B23: mAb 117 (antibody, V domains shown)
# VH: B10 VH with S55T, A59T, D68G, W106L
# VL: B10 VL with H3Q, L15V, F21I, R39K, G105E
# notes: VH and VL only
# B24: mAb 155 (antibody, V domains shown)
# VH: B10 VH with S55T, A59T, T60A, D68G, N79K, Y82F, W106Y
# VL: B10 VL with H3Q, L15V, T20I, F21I, R39K, S76G, T97S, G105D
# notes: VH and VL only
# B25: mAb 157 (antibody, V domains shown)
# VH: B10 VH with N54T, S55A, D68G
# VL: B10 VL with S7A, L15V, R39K
# notes: VH and VL only
# B26: mAb 156 (antibody, V domains shown)
# VH: B10 VH with S55T, A59T, T60A, D68G, N79K, Y82F, W106Y
# VL: B10 VL with H3Q, L15V, T20I, F21I, R39K, P40A, S76G, G105E
# notes: VH and VL only
# B27: mAb 131 (antibody, V domains shown)
# VH: B10 VH with L20I, S55T, A59T, T60I, D68G, T71S, Y82F, Y97F, W106Y
# VL: B10 VL with L15V, F21I, R39K, Y87F
# notes: VH and VL only
# B28: mAb 112 (antibody, V domains shown)
# VH: B10 VH with L18H, A59T, D68G, T71I
# VL: B10 VL with H3Q, L15V, F21I, R39K, L46I, S53N, Y87F, G105E
# notes: VH and VL only
# B29: mAb 133 (antibody, V domains shown)
# VH: B10 VH with N35S, S55T, A59T, T60A, D68G, N79K, Y82F, T93S, T99V, W106Y
# VL: B10 VL with H3Q, L15V, T20S, F21I, R39K, S76G, G105E
# notes: VH and VL only
# Columns and labels:
# [1] = biological target: T1, human CD3e/g (human, UniProt P07766 23-126; P09693 23-116); assay: SPR (Carterra LSA), mAb on chip
# T1 construct: Bought soluble protein; also called hCD3e/g; human CD3e/g (Acro CDD-C52W4)
# Procedure: (§1) High-throughput surface plasmon resonance (SPR) coupled kinetic experiments were performed on a Carterra LSA® instrument equipped with an HC-30M chip type (Carterra, USA). The instrument uses two microfluidic modules, a single-flow cell (SFC) and a 96 printhead, to deliver samples to the chip surface via back-and-forth cycling of a fixed sample volume. An up to 384-ligand array is generated by docking the MFC onto each of the four nested print block locations in a serial manner.
# (§2) The purified mAbs were immobilized on a Carterra LSA® HC-30M chip by direct coupling. The chip surface was first activated by flowing a freshly prepared 1:1:1 activation mix of 100 mM MES pH 5.5, 100 mM S-NHS, 400 mM EDC for 7 min. mAbs diluted to 10 μg/mL in 10 mM NaOAc pH 4.25+0.01% TWEEN®20 were then injected and printed onto the chip surface simultaneously using the MFC printhead for 10 min. Finally, the chip surface was quenched by flowing 1 M ethanolamine for 7 min (to block the excess reactive esters), followed by 2 wash steps of 15 s each in 25 mM MES pH 5.5. In addition to expressed and purified mAbs, relevant benchmarks and negative control mAbs were also printed on the chip surface.
# (§3) The data were analyzed using the Carterra Kinetics analysis software. Briefly, the data were referenced with the interstitial reference spots and double-referenced to a buffer cycle, and then fit globally to a 1:1 Langmuir binding model to determine their apparent association (ka) and dissociation (kd) kinetic rate constants and binding affinity constants (KD).
# [2] = biological target: T2, human CD3e/d (human, UniProt P07766 23-126; P04234 22-105); assay: SPR (Carterra LSA), mAb on chip
# T2 construct: Bought soluble protein; also called hCD3e/d; human CD3/ed (Sino CT038-H2508H)
# Procedure: as §1, §2, §3
# T1 sequence (P07766 23-126, chain 1 of 2): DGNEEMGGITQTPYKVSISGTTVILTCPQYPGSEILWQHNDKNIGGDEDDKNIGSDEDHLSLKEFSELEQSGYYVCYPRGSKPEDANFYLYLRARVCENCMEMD
# T1 sequence (P09693 23-116, chain 2 of 2): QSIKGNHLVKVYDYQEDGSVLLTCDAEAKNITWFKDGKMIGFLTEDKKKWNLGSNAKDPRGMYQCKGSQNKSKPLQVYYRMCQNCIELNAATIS
# T2 sequence (P07766 23-126, chain 1 of 2): as the sequence (P07766 23-126, chain 1 of 2) above
# T2 sequence (P04234 22-105, chain 2 of 2): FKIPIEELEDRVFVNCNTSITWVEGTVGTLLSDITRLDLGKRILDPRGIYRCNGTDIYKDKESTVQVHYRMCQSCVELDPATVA
Binder,Kd [1] [nM],Kd [2] [nM]
B1,258,–
B2,18.6,–
B3,113,–
B4,85.7,–
B5,16.2,–
B6,9.83,–
B7,0.69,–
B8,98.4,240
B9,171,351
B10,6.07,21.7
B11,12.1,44.4
B12,15,77
B13,13,34.2
B14,10.6,40.4
B15,28.8,107
B16,12.5,47.3
B17,12.6,73.8
B18,18.9,65.8
B19,8.63,42
B20,13.8,36
B21,24.1,104
B22,15.7,63.8
B23,9.84,40.6
B24,7.07,46.2
B25,12.2,53.1
B26,7,47.7
B27,7.45,32.1
B28,14.8,56.9
B29,6.64,27.2
